{
  "source": "patent US6635751B1",
  "about": "“Isolated nucleic acids encoding activated and suppressive forms of ATF6” (HSP Research Institute, Inc., priority 1998, dated 2003)",
  "key": {"[1]": {"system": "human GRP78 promoter", "test": "Overexpression of pCGN-ATF6 deletion mutants with reporter pGL3-G78(-132) in HeLa cells, ERSE-mediated transcription", "format": "cell-based", "settings": "for transcription of the luciferase gene from the GRP78 promoter having ERSE: absence of endoplasmic reticulum stress (without TM)", "experimental": "HeLa cells in a 24-well plate were transiently transfected with a reporter plasmid pGL-G78(−132) capable of expressing firefly luciferase gene under the control of human GRP78 promoter, together with pCGN vector alone (Vec) or each of ATF6 expression plasmids. Transfected cells were treated with (closed bars) or without (open bars) 2 μg/ml tunicamycin (TM) for 16 hours prior to measuring luciferase activity. The relative activities are indicated as the mean±standard deviations (bars) from four independent experiments (triplicate determinations).\nUsing HeLa cells co-transfected with the reporter plasmid pGL3-G78(−132) [see Example 1 (FIG. 6, line 2)] resulting from ligation of the firefly luciferase gene to downstream of the human GRP78 promoter ([−132 to +7], numbered on the basis of the translation initiation point taken as +1) and the expression plasmid for the ATF6 C-terminal deletion mutant of Example 10, the effects of each of the overexpressed C-terminal deletion mutants of ATF6 on ERSE-mediated transcriptional activation were evaluated.\nNext, in the same manner as in Example 13, the effect of the overexpression of each ATF6 transcription-activating domain deletion mutant on ERSE-mediated transcriptional activation was evaluated by co-transfection with the reporter plasmid pGL3-G78(−132)."}, "[2]": {"system": "GRP78 promoter", "test": "Co-transfection of pcDNA3.1 effector plasmid (full-length ATF6 or CREB-RP) with GRP78 promoter luciferase reporter in HeLa cells", "format": "cell-based, human", "experimental": "100 ng of an effector plasmid carrying a full-length ATF6 cDNA or plasmid vector alone was cotransfected into HeLa cells with 1 μg of a reporter plasmid containing luciferase gene fused with intact or mutant GRP promoters. The mutant promoter constructs used correspond to those of FIG. 6. Closed bars and open bars indicated cells treated with or without 2 μg/ml tunicamycin (in the figure, referred to as “TM”) for 16 hours, respectively. Experiments were repeated four times.\nAn effector plasmid carrying a full-length CREB-RP gene was cotransfected into HeLa cells harboring a reporter plasmid in the same manner as in FIG. 14. Experiments were repeated four times. In the figure, TM indicates tunicamycin.\nAn entire cDNA was inserted into the HindIII-XhoI sites or BamHI-EcoRI sites immediately downstream of the CMV promoter of pcDNA3.1(+) vector (manufactured by Invitrogen) to construct an effector plasmid for expressing ATF6 or CREB-RP, respectively.\nIn order to examine whether or not ATF6 is involved in the transcriptional regulation of the GRP gene in mammalian cells, HeLa cells were co-transfected with an effector plasmid carrying a full-length ATF6 cDNA and a reporter plasmid resulting from ligation of the firefly luciferase gene to downstream of the intact GRP promoter or a mutant GRP promoter, and GRP promoter activity was evaluated from the luciferase activity.\nTherefore, with these findings in mind, a test was carried out to determine whether or not CREB-RP overexpression affects the activity of the GRP promoter."}, "[3]": {"settings": "presence of TM (2 μg/ml, 16 hours)"}},
  "data": [
    {"molecule": "ATF6(151-373): ATF6 amino acids 151st to 373rd, transcription-activating domain deletion mutant (protein, UniProt P18850 151-373, looked up, fragment) DKPVTGPRNKTENGLTPKKKIQVNSKPSIQPKPLLLPAAPKTQTNSSVPAKTIIIQTVPTLMPLAKQQPIISLQPAPTKGQTVLLSQPTVVQLQAPGVLPSAQPVLAVAGGVTQLPNHVVNVVPAPSANSPVNGKLSVTKPVLQSTMRNVGSDIAVLRRQQRMIKNRESACQSRKKKKEYMLGLEARLKAALSENEQLKKENGTLKRQLDEVVSENQRLKVPS", "values": [
      {"measurement": "action on endogenous p50ATF6 in the nucleus", "setting": "[1]", "result": "act dominant-negatively"}
    ]},
    {"molecule": "CREB-RP: full-length CREB-RP (SEQ ID NO: 34) expressed from pcDNA3.1(+) effector plasmid (protein, listed as Homo sapiens) MAELMLLSEIADPTRFFTDNLLSPEDWDSTLYSGLDEVAEEQTQLFRCPEQDVPFDGSSLDVGMDVSPSEPPWELLPIFPDLQVKSEPSSPCSSSSLSSESSRLSTEPSSEALGVGEVLHVKTESLAPPLCLLGDDPTSSFETVQINVIPTSDDSSDVQTKIEPVSPCSSVNSEASLLSADSSSQAFIGEEVLEVKTESLSPSGCLLWDVPAPSLGAVQISMGPSLDGSSGKALPTRKPPLQPKPVVLTTVPMPSRAVPPSTTVLLQSLVQPPPVSPVVLIQGAIRVQPEGPAPSLPRPERKSIVPAPMPGNSCPPEVDAKLLKRQQRMIKNRESACQSRRKKKEYLQGLEARLQAVLADNQQLRRENAALRRRLEALLAENSELKLGSGNRKVVCIMVFLLFIAFNFGPVSISEPPSAPISPRMNKGEPQPRRHLLGFSEQEPVQGVEPLQGSSQGPKEPQPSPTDQPSFSNLTAFPGGAKELLLRDLDQLFLSSDCRHFNRTESLRLADELSGWVQRHQRGRRKIPQRAQERQKSQPRKKSPPVKAVPIQPPGPPERDSVGQLQLYRHPDRSQPAFLDAIDRREDTFYVVSFRRGHLLLPAISHNKTSRPKMSLVMPAMAPNETLSGRGAPGDYEEMMQIECEVMDTRVIHIKTSTVPPSLRKQPSPTPGNATGGPLPVSAASQAHQASHQPLYLNHP", "values": [
      {"measurement": "effect on reporter expression from intact GRP78 promoter", "setting": "[2]; absence of TM", "result": "hardly affected"},
      {"measurement": "effect on expression from mutant GRP78 promoter lacking all three ERSE sequences", "setting": "[2]", "result": "did not affect"},
      {"measurement": "effect on reporter expression from intact GRP78 promoter", "setting": "[2]; [3]", "result": "markedly suppressed"}
    ]},
    {"molecule": "ATF6(402): HA-tagged ATF6 amino acids 1st to 402nd; retains the transmembrane domain (protein, UniProt P18850 1-402, looked up, fragment, HA tag, HA-tagged ATF6 amino acids 1st to 402nd; retains the transmembrane domain) MGEPAGVAGTMESPFSPGLFHRLDEDWDSALFAELGYFTDTDELQLEAANETYENNFDNLDFDLDLMPWESDIWDINNQICTVKDIKAEPQPLSPASSSYSVSSPRSVDSYSSTQHVPEELDLSSSSQMSPLSLYGENSNSLSSAEPLKEDKPVTGPRNKTENGLTPKKKIQVNSKPSIQPKPLLLPAAPKTQTNSSVPAKTIIIQTVPTLMPLAKQQPIISLQPAPTKGQTVLLSQPTVVQLQAPGVLPSAQPVLAVAGGVTQLPNHVVNVVPAPSANSPVNGKLSVTKPVLQSTMRNVGSDIAVLRRQQRMIKNRESACQSRKKKKEYMLGLEARLKAALSENEQLKKENGTLKRQLDEVVSENQRLKVPSPKRRVVCVMIVLAFIILNYGPMSMLEQDS", "values": [
      {"measurement": "transcription of the luciferase gene from the GRP78 promoter having ERSE", "setting": "[1]", "result": "constitutively enhanced"}
    ]},
    {"molecule": "ATF6(330): HA-tagged ATF6 amino acids 1st to 330th; lacks the leucine zipper region (protein, UniProt P18850 1-330, looked up, fragment, HA tag, HA-tagged ATF6 amino acids 1st to 330th; lacks the leucine zipper region) MGEPAGVAGTMESPFSPGLFHRLDEDWDSALFAELGYFTDTDELQLEAANETYENNFDNLDFDLDLMPWESDIWDINNQICTVKDIKAEPQPLSPASSSYSVSSPRSVDSYSSTQHVPEELDLSSSSQMSPLSLYGENSNSLSSAEPLKEDKPVTGPRNKTENGLTPKKKIQVNSKPSIQPKPLLLPAAPKTQTNSSVPAKTIIIQTVPTLMPLAKQQPIISLQPAPTKGQTVLLSQPTVVQLQAPGVLPSAQPVLAVAGGVTQLPNHVVNVVPAPSANSPVNGKLSVTKPVLQSTMRNVGSDIAVLRRQQRMIKNRESACQSRKKKKEY", "values": [
      {"measurement": "activity compared with ATF6(373) or ATF(366)", "setting": "[1]; nearly the same expression level", "result": "markedly lower activity"}
    ]},
    {"molecule": "ATF6(151-366): ATF6 amino acids 151st to 366th, transcription-activating domain deletion mutant (protein, UniProt P18850 151-366, looked up, fragment) DKPVTGPRNKTENGLTPKKKIQVNSKPSIQPKPLLLPAAPKTQTNSSVPAKTIIIQTVPTLMPLAKQQPIISLQPAPTKGQTVLLSQPTVVQLQAPGVLPSAQPVLAVAGGVTQLPNHVVNVVPAPSANSPVNGKLSVTKPVLQSTMRNVGSDIAVLRRQQRMIKNRESACQSRKKKKEYMLGLEARLKAALSENEQLKKENGTLKRQLDEVVSEN", "values": [
      {"measurement": "action on endogenous p50ATF6 in the nucleus", "setting": "[1]", "result": "act dominant-negatively"}
    ]},
    {"molecule": "ATF6: full-length ATF6, 670 amino acids (SEQ ID NO: 32), bZIP transcription factor expressed from pcDNA3.1(+) effector plasmid (protein, listed as Homo sapiens) MGEPAGVAGTMESPFSPGLFHRLDEDWDSALFAELGYFTDTDELQLEAANETYENNFDNLDFDLDLMPWESDIWDINNQICTVKDIKAEPQPLSPASSSYSVSSPRSVDSYSSTQHVPEELDLSSSSQMSPLSLYGENSNSLSSPEPLKEDKPVTGSRNKTENGLTPKKKIQVNSKPSIQPKPLLLPAAPKTQTNSSVPAKTIIIQTVPTLMPLAKQQPIISLQPAPTKGQTVLLSQPTVVQLQAPGVLPSAQPVLAVAGGVTQLPNHVVNVVPAPSANSPVNGKLSVTKPVLQSTMRNVGSDIAVLRRQQRMIKNRESACQSRKKKKEYMLGLEARLKAALSENEQLKKENGTLKRQLDEVVSENQRLKVPSPKRRVVCVMIVLAFIILNYGPMSMLEQDSRRMNPSVSPANQRRHLLGFSAKEAQDTSDGIIQKNSYRYDHSVSNDKALMVLTEEPLLYIPPPPCQPLINTTESLRLNHELRGWVHRHEVERTKSRRMTNNQQKTRILQGALEQGSNSQLMAVQYTETTSSISRNSGSELQVYYASPRSYQDFFEAIRRRGDTFYVVSFRRDHLLLPATTHNKTTRPKMSIVLPAININENVINGQDYEVMMQIDCQVMDTRILHIKSSSVPPYLRDQQRNQTNTFFGSPPAATEATHVVSTIPESLQ", "values": [
      {"measurement": "increase of luciferase expression from GRP78 promoter having intact ERSE sequences over control vector", "setting": "[2]; absence of TM, 100 ng effector plasmid", "result": 5, "unit": "fold"},
      {"measurement": "effect on expression from mutant GRP78 promoter lacking all three ERSE sequences", "setting": "[2]", "result": "not affected"},
      {"measurement": "effect on reporter expression from intact GRP78 promoter", "setting": "[2]; [3]", "result": "further increased"}
    ]},
    {"molecule": "ATF(670): full-length ATF6 with HA epitope at N-terminus, expressed from pCGN-ATF6(670) (protein, UniProt P18850 1-670, looked up, full-length N-terminal HA tag) MGEPAGVAGTMESPFSPGLFHRLDEDWDSALFAELGYFTDTDELQLEAANETYENNFDNLDFDLDLMPWESDIWDINNQICTVKDIKAEPQPLSPASSSYSVSSPRSVDSYSSTQHVPEELDLSSSSQMSPLSLYGENSNSLSSAEPLKEDKPVTGPRNKTENGLTPKKKIQVNSKPSIQPKPLLLPAAPKTQTNSSVPAKTIIIQTVPTLMPLAKQQPIISLQPAPTKGQTVLLSQPTVVQLQAPGVLPSAQPVLAVAGGVTQLPNHVVNVVPAPSANSPVNGKLSVTKPVLQSTMRNVGSDIAVLRRQQRMIKNRESACQSRKKKKEYMLGLEARLKAALSENEQLKKENGTLKRQLDEVVSENQRLKVPSPKRRVVCVMIVLAFIILNYGPMSMLEQDSRRMNPSVSPANQRRHLLGFSAKEAQDTSDGIIQKNSYRYDHSVSNDKALMVLTEEPLLYIPPPPCQPLINTTESLRLNHELRGWVHRHEVERTKSRRMTNNQQKTRILQGALEQGSNSQLMAVQYTETTSSISRNSGSELQVYYASPRSYQDFFEAIRRRGDTFYVVSFRRDHLLLPATTHNKTTRPKMSIVLPAININENVINGQDYEVMMQIDCQVMDTRILHIKSSSVPPYLRDQQRNQTNTFFGSPPAATEATHVVSTIPESLQ", "values": [
      {"measurement": "transcription of the luciferase gene from the GRP78 promoter having ERSE", "setting": "[1]", "result": "constitutively activated"}
    ]}
  ]
}
